Test results reported in patent JP2007501612A (dated 2007).

Experiments:
[1] = molecular target: T1, mutant peptide Gln117Ala LDLSDNAALRVVDPTT (rat); assay: ELISA, peptide on MaxiSorp plate, serial dilution of 7E11
T1 construct: also called Gla117Ala (so in the source)
T1 peptide: LDLSDNAALRVVDPTT

[2] = molecular target: T2, mutant peptide Arg119His LDLSDNAQLHVVDPTT (rat); assay: as above
T2 peptide: LDLSDNAQLHVVDPTT

[3] = molecular target: Nogo receptor-1 (species and form not stated); assay: method not given
[4] = molecular target: T3, sNogoR344-Fc (rat, UniProt Q99M75 26-344); assay: SPA bead competition: inhibition of 125I-Nogo66 binding to immobilised sNogoR344-Fc
T3 construct: also called Fc-sNogoR344; Ig-sNogoR344; not shown: hinge region and Fc region of rat IgG1
T3 chain: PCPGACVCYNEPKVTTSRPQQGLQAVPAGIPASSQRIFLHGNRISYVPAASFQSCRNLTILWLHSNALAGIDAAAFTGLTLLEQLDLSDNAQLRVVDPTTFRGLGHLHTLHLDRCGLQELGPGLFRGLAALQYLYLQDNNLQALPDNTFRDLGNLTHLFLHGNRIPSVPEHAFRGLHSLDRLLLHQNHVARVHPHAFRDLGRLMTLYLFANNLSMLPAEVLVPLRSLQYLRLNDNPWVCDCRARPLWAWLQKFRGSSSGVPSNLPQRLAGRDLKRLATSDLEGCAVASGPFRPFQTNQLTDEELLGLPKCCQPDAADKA

fold increase of EC50 against the original peptide [1]: 30 fold | fold increase of EC50 against the original peptide [2]: 25 fold | Kd [3]: 100 nM | IC50 [4]: 400 nM
B1: monoclonal antibody 7E11 (antibody, V domains shown)
VH: VQLQESGAELVMPGASVKMSCKASGYTFTDYWMHWVKQRPGQGLEWIGAIDPSDSYSSYNQNFKGKATLTVDGSSSTAYMQLSSLTSEDSAVYYCARRITEAGAWFAYWGQGTTVT
VL: DVVMTQTPLSLPVSLGDQASISCRSSQSLVHSNGNTYLHWYLQKPGQSPKLLIYKVSNRFSGVPDRFSGSGSGTDFTLKISRVDAEDLGVYFCSQSTHVPFTFGGGTKLEIKR
